In patent US20210263044A1 one finds residual amount of antibody (unbound IgG remaining in the supernatant) data, which are given here for 1 substance.

This experiment concerns the target Protein G bound to porous resin beads (Pierce Biotechnology, Protein G UltraLink resin) (UniProt P19909). As to the kind of experiment: 100 ug IgG mixed with 10 uL Protein G resin bead suspension; supernatant analysed by SDS-PAGE, band pixels.

Consider human immunoglobulin G (IgG) (antibody), for which the residual amount of antibody (unbound IgG remaining in the supernatant) came out at 3%.
